Measured values published in article PMC6609482.
Read-outs that look alike come from different tables or passages of the source.

Columns and labels:
[1] = molecular target: T1, HMCES SRAP domain (SRAPd) WT (Homo sapiens, UniProt Q96FZ2 2-270); test: fluorescence polarization
T1 sequence: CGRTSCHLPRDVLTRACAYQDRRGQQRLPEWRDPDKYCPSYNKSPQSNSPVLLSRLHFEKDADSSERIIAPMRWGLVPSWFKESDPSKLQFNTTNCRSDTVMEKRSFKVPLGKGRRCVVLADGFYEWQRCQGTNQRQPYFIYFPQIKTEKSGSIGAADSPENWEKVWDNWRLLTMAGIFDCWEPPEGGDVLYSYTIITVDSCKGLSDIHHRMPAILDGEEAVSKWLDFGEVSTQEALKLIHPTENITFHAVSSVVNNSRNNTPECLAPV

[2] = molecular target: T1, HMCES SRAP domain (SRAPd) WT; test: crystal structure
[3] = molecular target: T1, HMCES SRAP domain (SRAPd) WT; test: crystal structure; remark: listed apart in the source

B1: 3-nt gap DNA (dsDNA)
DNA 1: TCTTCTGGTCCGGATGGTAGTTAAGTGTTGAC
DNA 2: GGACCAGAAGA
DNA 3: GTCAACACTTAACTACCA
In the case of B1, the binding signal [1] is reported as ~7 fold higher affinity than dsDNA of same sequence.

B2: DNA_6nt (3' overhang) (dsDNA)
DNA 1: CCAGACGTTGTT
DNA 2: GTCTTG
B2: binds [2].

B3: DNA_3nt (3' overhang) (dsDNA)
DNA 1: CCAGACGTT
DNA 2: GTCTTG
B3: binds [3].
